# Laboratory results: US20140087995A1 (published 2014)
# Numbered stars: 1 amine (or outer) side, 2 acyl side, 3 side chain; on linkers, the order of the positions; unused ones are H or OH. Bridge positions count the residues as written; N and C are the ends. Side chains are listed from the residue outwards. Ends that are not written are not given here. * marks the point of attachment. C20 diacid = O=C(O)CCCCCCCCCCCCCCCCCCC(=O)*; γGlu = O=C(O)[C@H](CCC(=O)[*:2])N[*:1]; AEEA = NCCOCCOCC(=O)O
# B1: N^ε1-[2-[2-[2-(19-carboxynonadecanoylamino)ethoxy]ethoxy]acetyl]-[Arg17,Pro21,Pro27]-h-amylin (peptide)
# peptide: K([AEEA-C20 diacid])CNTATCATQRLANFLRHSSPNFGAIPSSTNVGSNTY-NH2
# modifications: disulfide 2-7; N-terminus assumed
# SMILES: CC[C@H](C)[C@H](NC(=O)[C@H](C)NC(=O)CNC(=O)[C@H](Cc1ccccc1)NC(=O)[C@H](CC(N)=O)NC(=O)[C@@H]1CCCN1C(=O)[C@H](CO)NC(=O)[C@H](CO)NC(=O)[C@H](Cc1c[nH]cn1)NC(=O)[C@H](CCCNC(=N)N)NC(=O)[C@H](CC(C)C)NC(=O)[C@H](Cc1ccccc1)NC(=O)[C@H](CC(N)=O)NC(=O)[C@H](C)NC(=O)[C@H](CC(C)C)NC(=O)[C@H](CCCNC(=N)N)NC(=O)[C@H](CCC(N)=O)NC(=O)[C@@H](NC(=O)[C@H](C)NC(=O)[C@@H]1CSSC[C@H](NC(=O)[C@@H](N)CCCCNC(=O)COCCOCCNC(=O)CCCCCCCCCCCCCCCCCCC(=O)O)C(=O)N[C@@H](CC(N)=O)C(=O)N[C@@H]([C@@H](C)O)C(=O)N[C@@H](C)C(=O)N[C@@H]([C@@H](C)O)C(=O)N1)[C@@H](C)O)C(=O)N1CCC[C@H]1C(=O)N[C@@H](CO)C(=O)N[C@@H](CO)C(=O)N[C@H](C(=O)N[C@@H](CC(N)=O)C(=O)N[C@H](C(=O)NCC(=O)N[C@@H](CO)C(=O)N[C@@H](CC(N)=O)C(=O)N[C@H](C(=O)N[C@@H](Cc1ccc(O)cc1)C(N)=O)[C@@H](C)O)C(C)C)[C@@H](C)O
# notes: Analogue of human amylin; also called compound 43
# B2: N^ε1-[2-[2-[2-[[(4S)-4-carboxy-4-(19-carboxynonadecanoylamino)butanoyl]amino]ethoxy]ethoxy]acetyl]-[Ala14,Arg17,Pro21,Pro27,Pro31]-h-amylin (peptide)
# peptide: K([AEEA-γGlu-C20 diacid])CNTATCATQRLAAFLRHSSPNFGAIPSSTPVGSNTY-NH2
# modifications: disulfide 2-7; N-terminus assumed
# SMILES: CC[C@H](C)[C@H](NC(=O)[C@H](C)NC(=O)CNC(=O)[C@H](Cc1ccccc1)NC(=O)[C@H](CC(N)=O)NC(=O)[C@@H]1CCCN1C(=O)[C@H](CO)NC(=O)[C@H](CO)NC(=O)[C@H](Cc1c[nH]cn1)NC(=O)[C@H](CCCNC(=N)N)NC(=O)[C@H](CC(C)C)NC(=O)[C@H](Cc1ccccc1)NC(=O)[C@H](C)NC(=O)[C@H](C)NC(=O)[C@H](CC(C)C)NC(=O)[C@H](CCCNC(=N)N)NC(=O)[C@H](CCC(N)=O)NC(=O)[C@@H](NC(=O)[C@H](C)NC(=O)[C@@H]1CSSC[C@H](NC(=O)[C@@H](N)CCCCNC(=O)COCCOCCNC(=O)CC[C@H](NC(=O)CCCCCCCCCCCCCCCCCCC(=O)O)C(=O)O)C(=O)N[C@@H](CC(N)=O)C(=O)N[C@@H]([C@@H](C)O)C(=O)N[C@@H](C)C(=O)N[C@@H]([C@@H](C)O)C(=O)N1)[C@@H](C)O)C(=O)N1CCC[C@H]1C(=O)N[C@@H](CO)C(=O)N[C@@H](CO)C(=O)N[C@H](C(=O)N1CCC[C@H]1C(=O)N[C@H](C(=O)NCC(=O)N[C@@H](CO)C(=O)N[C@@H](CC(N)=O)C(=O)N[C@H](C(=O)N[C@@H](Cc1ccc(O)cc1)C(N)=O)[C@@H](C)O)C(C)C)[C@@H](C)O
# notes: Analogue of human amylin; also called compound 72
# B3: N^ε1-[2-[2-[2-[[(4S)-4-carboxy-4-(19-carboxynonadecanoylamino)butanoyl]amino]ethoxy]ethoxy]acetyl]-[Arg14,Arg17,Pro21,Pro27,Pro31]-h-amylin (peptide)
# peptide: K([AEEA-γGlu-C20 diacid])CNTATCATQRLARFLRHSSPNFGAIPSSTPVGSNTY-NH2
# modifications: disulfide 2-7; N-terminus assumed
# SMILES: CC[C@H](C)[C@H](NC(=O)[C@H](C)NC(=O)CNC(=O)[C@H](Cc1ccccc1)NC(=O)[C@H](CC(N)=O)NC(=O)[C@@H]1CCCN1C(=O)[C@H](CO)NC(=O)[C@H](CO)NC(=O)[C@H](Cc1c[nH]cn1)NC(=O)[C@H](CCCNC(=N)N)NC(=O)[C@H](CC(C)C)NC(=O)[C@H](Cc1ccccc1)NC(=O)[C@H](CCCNC(=N)N)NC(=O)[C@H](C)NC(=O)[C@H](CC(C)C)NC(=O)[C@H](CCCNC(=N)N)NC(=O)[C@H](CCC(N)=O)NC(=O)[C@@H](NC(=O)[C@H](C)NC(=O)[C@@H]1CSSC[C@H](NC(=O)[C@@H](N)CCCCNC(=O)COCCOCCNC(=O)CC[C@H](NC(=O)CCCCCCCCCCCCCCCCCCC(=O)O)C(=O)O)C(=O)N[C@@H](CC(N)=O)C(=O)N[C@@H]([C@@H](C)O)C(=O)N[C@@H](C)C(=O)N[C@@H]([C@@H](C)O)C(=O)N1)[C@@H](C)O)C(=O)N1CCC[C@H]1C(=O)N[C@@H](CO)C(=O)N[C@@H](CO)C(=O)N[C@H](C(=O)N1CCC[C@H]1C(=O)N[C@H](C(=O)NCC(=O)N[C@@H](CO)C(=O)N[C@@H](CC(N)=O)C(=O)N[C@H](C(=O)N[C@@H](Cc1ccc(O)cc1)C(N)=O)[C@@H](C)O)C(C)C)[C@@H](C)O
# notes: Analogue of human amylin; also called compound 64
# Molecular target: T1, rat calcitonin receptor (rat, UniProt P32214 25-516)
# T1 construct: whole, on cells; Used as membranes prepared from BHK tk'ts 13 cells transiently transfected with the rat calcitonin receptor (Assay VIII); also called rCTR; rat calcitonin (a) receptor
# T1 sequence (looked up): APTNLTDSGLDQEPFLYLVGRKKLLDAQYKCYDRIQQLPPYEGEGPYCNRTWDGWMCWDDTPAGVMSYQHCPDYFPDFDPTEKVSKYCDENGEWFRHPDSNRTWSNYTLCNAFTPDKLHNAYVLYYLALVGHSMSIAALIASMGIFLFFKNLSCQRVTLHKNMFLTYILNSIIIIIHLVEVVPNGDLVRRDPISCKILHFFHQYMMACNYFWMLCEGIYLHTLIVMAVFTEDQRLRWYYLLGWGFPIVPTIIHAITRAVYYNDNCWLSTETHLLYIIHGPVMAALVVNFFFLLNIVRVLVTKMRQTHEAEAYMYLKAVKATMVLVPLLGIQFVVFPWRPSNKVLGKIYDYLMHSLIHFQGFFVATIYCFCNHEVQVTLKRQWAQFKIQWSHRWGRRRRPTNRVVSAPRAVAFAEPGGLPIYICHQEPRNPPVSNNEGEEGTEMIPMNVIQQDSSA
# Test: IC50 on rat CTR divided by IC50 on rat amylin receptor (Assays VIII/VI)
row,Binder,Ratio rCT/rAmylin binding
1,B1,69.1
2,B2,259
3,B3,64.7

# Molecular target: T2, human calcitonin receptor (human, UniProt P30988 25-474)
# T2 construct: whole, on cells; Used as membranes prepared from a BHK tk'ts 13 cell line stably transfected with the human calcitonin receptor (Assay VII); also called hCTR; hCT
# T2 sequence (looked up): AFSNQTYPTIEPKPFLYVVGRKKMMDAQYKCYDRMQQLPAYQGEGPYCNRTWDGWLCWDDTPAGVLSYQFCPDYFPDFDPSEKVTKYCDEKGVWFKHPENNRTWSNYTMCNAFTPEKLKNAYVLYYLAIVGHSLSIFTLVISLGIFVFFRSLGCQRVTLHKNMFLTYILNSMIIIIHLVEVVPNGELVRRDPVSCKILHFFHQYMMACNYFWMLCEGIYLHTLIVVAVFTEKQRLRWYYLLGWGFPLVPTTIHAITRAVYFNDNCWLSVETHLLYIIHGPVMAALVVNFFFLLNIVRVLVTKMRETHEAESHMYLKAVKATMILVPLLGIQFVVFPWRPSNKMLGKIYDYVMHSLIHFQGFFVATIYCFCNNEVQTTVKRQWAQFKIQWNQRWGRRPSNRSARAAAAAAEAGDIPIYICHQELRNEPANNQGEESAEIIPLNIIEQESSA
# Test: IC50 on human CTR divided by IC50 on human amylin receptor (Assays VII/V)
# Experimental: The resulting pellet was resuspended, homogenized and centrifuged (20.000 rpm, 15 min) in a buffer containing 20 mM Na-HEPES and 0.1 mM EDTA (pH 7.4, buffer 2). The resulting pellet was resuspended in buffer 2 and protein concentration was measured (BCA protein Assay, Pierce). The homogenate was kept cold during the whole procedure. The membranes were kept at −80° C. until use. The assay was performed in a 384 well Optiplate (PerkinElmer) in a total volume of 40 ul. Membranes were mixed with SPA beads. Final concentration of membranes 35 ng/μL final and SPA beads was 0.05 mg/well. Test-compounds were dissolved in DMSO and further diluted in assay buffer (50 mM Hepes, pH 7.4, 1 mM CaCl2, 5 mM MgCl₂, 0.1% OA and 0.02% Tween20). […] The final mixture was incubated with shaking at 400 rpm for 120 min at 25° C. prior to centrifugation (1500 rpm, 10 min). Samples were analyzed on TopCounter™ (Packard). The IC₅₀ was calculated using (one site binding competition analysis) GraphPad Prism5 as a measure of receptor affinity.
# Membranes were prepared in the following way; the cells were rinsed with PBS and incubated with Versene for approximately 5 min before harvesting. The cells were flushed with PBS and the cell-suspension was centrifuged for 5 min at 1000 rpm. Cells were homogenized (Ultrathurrax) in a buffer containing 20 mM Na-HEPES and 10 mM EDTA (pH 7.4) and centrifuged at 20.000 rpm for 15 min. The resulting pellet was resuspended, homogenized and centrifuged (20.000 rpm, 15 min) in a buffer containing 20 mM Na-HEPES and 0.1 mM EDTA (pH 7.4, buffer 2). The resulting pellet was resuspended in buffer 2 and protein concentration was measured (BCA protein Assay, Pierce). The homogenate was kept cold during the whole procedure. The membranes were kept at −80° C. until use. Assay was performed in a 384 well Optiplate (PerkinElmer) in a total volume of 40 ul. Membranes were mixed with SPA beads.
row,Binder,Ratio hCT/hAmylin binding
1,B1,34.7
2,B2,247
3,B3,126

# Molecular target: T1, rat calcitonin receptor
# Test: SPA competition with 125I-calcitonin, membranes of BHK cells with rat CTR (Assay VIII)
row,Binder,IC50 [nM]
1,B1,7.6
2,B2,221
3,B3,128

# Molecular target: T3, rat amylin receptor (rat calcitonin receptor + rat RAMP 3) (rat, UniProt P32214 25-516; Q9JJ73 23-147)
# T3 construct: whole, on cells; Used as membranes prepared from BHK tk'ts 13 cells transiently transfected with rat calcitonin receptor and rat RAMP 3 (Assay VI); also called rAmylin-R; rat amylin 3(a) receptor
# T3 sequence (looked up) 1: T1 sequence (looked up)
# T3 sequence (looked up) 2: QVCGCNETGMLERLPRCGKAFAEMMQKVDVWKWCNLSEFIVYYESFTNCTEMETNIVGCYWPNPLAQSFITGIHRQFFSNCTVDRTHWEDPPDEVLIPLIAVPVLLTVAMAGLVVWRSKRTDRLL
# Test: SPA competition with 125I-rat amylin, membranes of BHK cells with rat CTR + rat RAMP3 (Assay VI)
# Experimental: The binding assay was performed using scintillation proximity assay (SPA) beads (RPNQ0001) from PerkinElmer and cell membranes from the Amylin 3(a)/CRE-luc cells (as described in Assay (II)) were used. Membranes were prepared in the following way; the cells were rinsed with PBS and incubated with Versene for approximately 5 min before harvesting. The cells were flushed with PBS and the cell-suspension was centrifuged for 5 min at 1000 rpm. Cells were homogenized (ultrathurrax) in a buffer containing 20 mM Na-HEPES and 10 mM EDTA (pH 7.4) and centrifuged at 20.000 rpm for 15 min. The resulting pellet was resuspended, homogenized and centrifuged (20.000 rpm, 15 min) in a buffer containing 20 mM Na-HEPES and 0.1 mM EDTA (pH 7.4, buffer 2). The resulting pellet was resuspended in buffer 2 and protein concentration was measured (BCA protein Assay, Pierce). The homogenate was kept cold during the whole procedure. The membranes were kept at −80° C. until use. The assay was performed in a 384 well Optiplate (PerkinElmer) in a total volume of 40 ul. Membranes were mixed with SPA beads. Final concentration of membranes 35 ng/μL final and SPA beads was 0.05 mg/well. Test-compounds were dissolved in DMSO and further diluted in assay buffer (50 mM Hepes, pH 7.4, 1 mM CaCl2, 5 mM MgCl₂, 0.1% OA and 0.02% Tween20). […] The final mixture was incubated with shaking at 400 rpm for 120 min at 25° C. prior to centrifugation (1500 rpm, 10 min). Samples were analyzed on TopCounter™ (Packard). The IC₅₀ was calculated using (one site binding competition analysis) GraphPad Prism5 as a measure of receptor affinity.
# Cells were grown in DMEM with 10% FBS and 1% Pen/Strep. Approximately 48 hours after transfection, the cells were harvested and membranes were prepared.
row,Binder,IC50 [nM]
1,B1,0.11
2,B2,0.851
3,B3,1.97
